Results on 3 molecules are retold here after PMC8956589, “Crystal structure of progeria mutant S143F lamin A/C reveals increased hydrophobicity driving nuclear deformation” (Communications Biology, 2022).

Substitutions are numbered along the chain they refer to. Names may count otherwise.

First the molecules themselves.
B1: wild-type lamin A/C fragment (residues 1–300) (domain or fragment, human, UniProt P02545 1-300, looked up)
chain: METPSQRRATRSGAQASSTPLSPTRITRLQEKEDLQELNDRLAVYIDRVRSLETENAGLRLRITESEEVVSREVSGIKAAYEAELGDARKTLDSVAKERARLQLELSKVREEFKELKARNTKKEGDLIAAQARLKDLEALLNSKEAALSTALSEKRTLEGELHDLRGQVAKLEAALGEAKKQLQDEMLRRVDAENRLQTMKEELDFQKNIYSEELRETKRRHETRLVEIDNGKQREFESRLADALQELRAQHEDQVEQYKKELEKTYSAKLDNARQSAERNSNLVGAAHEELQQSRIRID
notes: human lamin A/C, residues 1-300 (head, coil 1a, L1, coil 1b, L12 and part of coil 2); Dimer by SEC-MALS; The vector pProEx-HTa is named for the S143F construct; also called lamin 300 fragment; wild-type lamin 300 fragment; source: E. coli, purified (cobalt-Talon, TEV cleavage, HiTrap Q, SEC)
B2: S143F mutant lamin A/C fragment (residues 1–300) (domain or fragment, human, UniProt P02545 1-300, looked up)
chain: B1 chain with S143F
notes: human lamin A/C, residues 1-300, with the disease mutation S143F (a genetic mutation found in patients); Vector pProEx-HTa; Ordered in the crystal: residues 29-229 and 31-229; also called S143F mutant lamin 300 fragment; Lamin S143F (residues 1–300); source: E. coli BL21 (DE3) or B834 (DE3), purified (cobalt-Talon, TEV cleavage, HiTrap Q, SEC)
B3: hexaHis-tagged lamin fragment (residues 250–400) (domain or fragment, human, UniProt P02545 250-400, looked up)
chain: AQHEDQVEQYKKELEKTYSAKLDNARQSAERNSNLVGAAHEELQQSRIRIDSLSAQLSQLQKQLAAKEAKLRDLEDSLARERDTSRRLLAEKEREMAEMRARMQQQLDEYQELLDIKLALDMEIHAYRKLLEGEEERLRLSPSPTSQRSRG
notes: human lamin A/C, residues 250-400 (C-terminal fragment of coil 2); also called His-lamin 2 C fragment; lamin 2 C fragment; source: E. coli, purified

Data set [1] deals with the molecule itself. Nature of the data set: SEC-MALS; 2 mg/mL sample on Superdex 200 Increase 10/300 GL, 20 mM Tris-HCl (pH 7.5), 150 mM NaCl. On the technique in general: Size exclusion chromatography separates by hydrodynamic size, large species first.
Data set [2] concerns the target B2. Nature of the data set: pull-down; hexaHis-tagged lamin 250–400 immobilised on Ni-NTA resin as bait, tagless lamin 300 fragments as prey; 20 mM Tris-HCl (pH 8.0), 50 mM or 150 mM NaCl, 20 mM imidazole in the wash, room temperature, 30 min; SDS-PAGE. Particulars: both partners purified.
The target of data set [3] is B1. Described as above. Particulars: both partners purified.

As for B1, the stoichiometry N (commonly the number of molecules, sites or subunits per partner or assembly) in data set [1] came out at 2.
On the same count and under the same terms, the value for B2 was 2.
In the case of B3, the binding result in data set [2] and in data set [3] was “binds” in each case.
